Results as given in paper PMC6774351 (Nature, 2019).

Target: the molecule itself
Assay: SEC

B1: engineered NEK7 dimer (artificial NEK7 dimer based on the PKR dimer structure) (enzyme)
chain: not shown
With B1 as the protein, how does the “stoichiometry N” value read?
The value was 2.
